Data on two molecules can be found in PMC8141032 (Oncogene, 2021).

The experiment concerns the target recombinant Flag-tagged SNF5 (UniProt Q12824 1-385). The experiment can be described thus: pull-down.

Chain of recombinant Flag-tagged SNF5 (Q12824 whole entry): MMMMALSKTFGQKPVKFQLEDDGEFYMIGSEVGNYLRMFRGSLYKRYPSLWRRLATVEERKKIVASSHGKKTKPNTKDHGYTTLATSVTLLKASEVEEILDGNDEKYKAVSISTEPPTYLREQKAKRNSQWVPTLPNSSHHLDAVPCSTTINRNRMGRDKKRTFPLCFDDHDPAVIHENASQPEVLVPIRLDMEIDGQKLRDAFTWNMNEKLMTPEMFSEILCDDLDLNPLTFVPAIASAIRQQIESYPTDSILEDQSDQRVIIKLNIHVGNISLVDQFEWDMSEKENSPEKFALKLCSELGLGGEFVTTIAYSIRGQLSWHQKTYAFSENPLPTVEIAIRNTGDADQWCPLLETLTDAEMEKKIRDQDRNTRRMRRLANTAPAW

B1: recombinant Sumo-tagged SWIRM (amino acids 417–580 of BAF155) (domain or fragment)
chain: TAGGKEDEDPAKGDQSRSVDLGEDNVTEQTNHIIIPSYASWFDYNCIHVIERRALPEFFNGKNKSKTPEIYLAYRNFMIDTYRLNPQEYLTSTACRRNLTGDVCAVMRVHAFLEQWGLVNYQVDPESRPMAMGPPPTPHFNVLADTPSGLVPLHLRSPQVPAAQ
In the case of B1, the binding result is given as “binds”.

B2: recombinant SWIRM domain (amino acids 417–546 of BAF155) (domain or fragment)
chain: TAGGKEDEDPAKGDQSRSVDLGEDNVTEQTNHIIIPSYASWFDYNCIHVIERRALPEFFNGKNKSKTPEIYLAYRNFMIDTYRLNPQEYLTSTACRRNLTGDVCAVMRVHAFLEQWGLVNYQVDPESRPM
Turning to B2, the binding result is recorded as “binds”.
